Here are results for 13 molecules from patent US20240400689A1 (ANTENGENE BIOLOGICS, published 2024).

Assay [1] concerns the target T1, mouse CD276 protein (mouse, UniProt Q8VE98 29-316).
T1 construct: whole, on cells; also called mCD276; CHO-S-mCD276
T1 sequence (looked up): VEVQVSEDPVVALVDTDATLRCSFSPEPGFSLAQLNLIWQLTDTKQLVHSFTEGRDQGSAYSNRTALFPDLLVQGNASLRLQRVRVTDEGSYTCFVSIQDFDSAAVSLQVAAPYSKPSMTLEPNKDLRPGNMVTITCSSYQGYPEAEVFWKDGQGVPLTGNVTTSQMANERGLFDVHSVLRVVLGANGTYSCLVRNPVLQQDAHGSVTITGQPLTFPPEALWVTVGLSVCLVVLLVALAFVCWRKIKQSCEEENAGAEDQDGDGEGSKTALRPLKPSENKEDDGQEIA
Put plainly: FACS on CHO-S-mCD276 cells. The procedure: (§1) Screening & Expansion—The subcloning plates were screened by protein or cell-based Elisa, and the subclones with good binding ability were expanded to 24-wells for confirmation tests. The specificity and cross-reactivity of these subclones were confirmed with FACS analysis. Briefly, parental CHO-S cells, CHO-S-hCD276, CHO-S cell line stably over-expressing Macaca fascicularis CD276, CHO-K1 S, cell line stably over-expressing mouse CD276 were incubated with antibodies produced by each subclone respectively. Fluorescent dye-conjugated secondary antibody was used to detect the binding of the primary antibody with the cells. Median fluorescence intensity was measured by FACS analysis.

The target in assay [2] is T2, human CD276 protein (human, UniProt Q5ZPR3 29-534).
T2 construct: whole, on cells; for SKOV3 and the other cancer lines the protein is the cells' own; also called B7-H3; B7H3
T2 sequence (looked up): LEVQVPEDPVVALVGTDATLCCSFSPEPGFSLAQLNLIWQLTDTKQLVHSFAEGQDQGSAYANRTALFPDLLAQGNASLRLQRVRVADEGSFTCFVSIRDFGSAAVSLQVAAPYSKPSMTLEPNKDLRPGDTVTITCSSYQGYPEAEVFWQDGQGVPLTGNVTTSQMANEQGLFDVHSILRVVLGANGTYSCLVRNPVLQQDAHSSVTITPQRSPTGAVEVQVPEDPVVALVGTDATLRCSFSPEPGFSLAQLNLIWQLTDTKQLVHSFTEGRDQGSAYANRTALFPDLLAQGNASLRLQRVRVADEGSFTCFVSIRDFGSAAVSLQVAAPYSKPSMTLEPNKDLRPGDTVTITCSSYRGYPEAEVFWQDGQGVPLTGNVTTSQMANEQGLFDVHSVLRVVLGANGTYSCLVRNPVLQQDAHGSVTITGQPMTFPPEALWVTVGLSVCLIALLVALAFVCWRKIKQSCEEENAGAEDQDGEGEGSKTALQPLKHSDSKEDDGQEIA
Put plainly: FACS on CHO-S-hCD276 cells. The procedure: as §1

The target in assay [3] is T3, Macaca fascicularis CD276 (Macaca fascicularis).
T3 construct: whole, on cells; also called cynomolgus monkey CD276; cynoCD276
Put plainly: FACS on CHO-S-cynoCD276 cells. The procedure: as §1

B1: 20-C5-D7-D3 (antibody, V domains shown)
VH: EVQLVESGGDLVKPGGSLKLSCAASGFTFRSYGMSWVRQTPDKRLEWVATISGGGNYTYYPDSVKGRFTISRDNAKNTLYLQMSSLKSEDTAMYYCARHEGLPLDYWGQGTTLTVSS
VL: DIQMTQSPASLSASVGETVTITCRASENIYSYLAWYQQKQGKSPQLLVYNAKTLAEGVPSRFSGSGSGTQFSLKINSLQPEDFGNFYCQHHYGTPTWTFGGGTKLEIK
notes: mouse monoclonal antibody (hybridoma)
With B1, the “FACS MFI” value in assay [1] was 1340; in assay [2], 77000; in assay [3] it was 13200.

B2: 9-E8-F9-C10 (antibody, V domains shown)
VH: EVQLQQSGAELVRPGTSVKISCKASGYAFSDYWLSWVKQRPGHGLEWIGDICPGSGNIYYNERFKDKVILTADRSSSTAYLQFSSLTSEDSVVYFCTRLITRVIDYWGQGTSVTVST
VL: ENVLTQSPAIMSASPGEKVTMTCSASSSVNYMHWYQQKSSTSPKLWIYDTSKLSSGVPGRFSGSGSGNSYSLTISSMEAEDVATYYCFQGSGYPLTFGAGTKLELK
notes: as for B1
As to B2, the “FACS MFI” value turned out to be 1950 in assay [1], 7610 in assay [2] and 5700 in assay [3].

B3: 14-E7-G9-D4 (antibody, V domains shown)
VH: EVQLQQSGPELVKPGASVKMSCKASGYTFTNYIMHWVKQKPGQGLEWIGYINPYNDGIKYNEKFKGKATLTSDKSSSTAYMELSSLTSEDSAVYYCTRWGNYVFYYTMDYWGQGTSVTVSS
VL: QIVLSQSPAILSASPGEKVTMTCRASSSVSYMHWYQQKPGSSPKPWIYATSNLASGVPARFSGSGSGTSYSLTISRMEAEDAATYYCQQWSGNPPLTFGAGTKLELK
notes: as for B1
As for B3, the “FACS MFI” value was 1300 in assay [1], 78100 in assay [2] and 61800 in assay [3].

B4: 28-G2-E6-B10 (antibody, V domains shown)
VH: QVQLQQPGAELVKPGASVKLSCKASGYTFTSYWMHWVKQRPGQGLEWIGMIHPNSDTTDYNEKFKTKATLTVDKSSSTAYMQLSSLTSEDSAVFYCARGGLGPHYFVYWGQGTTLTVSS
VL: QAVVTQESALTTSPGGTVILTCRSSTGAVTTSNYASWVQEKPDHLFTGLIGGTSNRAPGVPVRFSGSLIGDKAALTITGAQTEDDAMYFCALWYSPHYVFGGGTKVTVL
notes: as for B1
On to B4, for which the “FACS MFI” value in assay [1] worked out at 2080; in assay [2], 56300; in assay [3], 40800.

B5: 3-G7-D8-D3 (antibody, V domains shown)
VH: QVQLQQSGAELARPGTSVKLSCKASGYTFTTYWIQWVKQRPGQGLEWIGAIYPGDGDTRYTQKFKGKATLTADKSSSTAYMQLSTLASEDSAVYYCARPYDGYYIDYPMDSWGQGTSVTVSS
VL: QIVLTQSPAIMSASPGEKVTMTCSASSRINYMHWYQQKPGTSPIIWIYDTSKLASGVPARFSGSGSGTSYSLTISSMEAEDAATYYCHQRSSYPFTFGSGTKLEIK
notes: as for B1
As for B5, the “FACS MFI” value turned out to be 1290 in assay [1], 82400 in assay [2] and 6420 in assay [3].

B6: 13-A8-C4-G1 (antibody, V domains shown)
VH: QVQLQQPGAELVKPGASMKLSCKASGYIFTSNWMHWVKQRPGQGLEWIGMIHPNSGTTSYNEKFKNKAKLTVDKSSSTAYVQLSSLTSEDSAVYYCAGPTTTRRFYPMDYWGQGTSVTVSS
VL: QAVVTQESALTTSPGETVTLTCRSSTGAVTTSNYANWVQEKPDHLFTGLIGGTNNRAPGVPARFSGSLIGDKAALTITGAQTEDEAIYFCALWYSNHFIFGSGTKVTVL
notes: as for B1
In the case of B6, the results for the “FACS MFI” value in assay [1], in assay [2] and in assay [3] were 6200, 54100 and 95800, respectively.

B7: 6-F3-G2-G1 (antibody, V domains shown)
VH: QVQLQQPGAELVKPGASVKLSCKASDYTFTNYWMHWVKQRPGQGLEWIGMIHPNSGTTSYNEKFKNKATLTVDTSSATTYMHLSSLTSEDSAVYYCASHYGNSYSAMDYWGQGTSVTVSS
VL: QAVVTQESALTTSPGGTVILTCRSSTGAVTTSNYANWVQEKPDHLFTGLIGGTSNRAPGVPVRFSGSLIGDKAALTITGAQTEDDAMYFCALWYSTHYVFGGGTKVTVL
notes: as for B1
As to B7, the “FACS MFI” value in assay [1] turned out to be 6980; in assay [2], 37400; in assay [3], 114000.

B8: 15-C8-B5-G7 (antibody, V domains shown)
VH: QVQLQQPGAELVKPGASVKLSCKASDYTFTSHWMHWVKQRPGQGLEWIGMIHPNSGTTHYNENFKNKATLTVDNSSSTAYMQLSSLTSEDSAVYYCAWGSSNSYFYAMAYWGQGTSVTVSS
VL: QAVVTQESALTTSPGETVTLTCRSSTGAVTTSNYANWVQEKPAHLFTGLIGGTNNRAPGVPARFSGSLIGDKAALTITGAQTEDEAIYFCALWFSNHLVFGGGTKLTVL
notes: as for B1
For the molecule B8, the “FACS MFI” value in assay [1] was 5730; in assay [2], 36600; in assay [3], 43000.

B9: 4-D5-B9-B11 (antibody, V domains shown)
VH: EIGGLVKPGGSLKFSCAASGFTFSSYAMSWVRQTPEKRLEWVATISGGGIYYPDSVKGRFTISRDNAKNTLYLQMSSLRSEDTAMYYCARQGSKGWDAMDYWGQGTSVTVSS
VL: QIVLTQSPAIMSASPGEKVTMTCRASSSVSFMHWYQQKSGTSPKRWIYETSKLASGVPDRFSGSGSGTSYSLTISSMEAEDAATYYCQQWSSNPLTFGAGTKLELK
notes: as for B1
With B9, the “FACS MFI” value was 2100 in assay [1], 145000 in assay [2] and 148000 in assay [3].

B10: 6-H11-G5-D8 (antibody, V domains shown)
VH: EVQLQESGPELVKPGTSVKLSCKASGYTFTSYDINWVRQRPEQGLEWIGWIFPGNGDTYYNEKFKGKATLTSDKSSSTAYMQLSRLTSEDSAVYFCARDLRLGTFDYWGQGTTLTVSS
VL: QIVLTQSPEIMSASPGEKVTMTCSASSSVSYIHWYQQKSGTSPKRWIYDTSKLASGVPARFSGSGSGTSYSLTIRSMEAEDAATYYCQQGSSNPRTFGGGTKLELK
notes: as for B1
Regarding B10, the “FACS MFI” value in assay [1] was found to be 1360; in assay [2], 113000; in assay [3] it was 30400.

B11: 3-C2-C3-E7 (antibody, V domains shown)
VH: EVQLQQSGPELVKPGASVKISCKTSGYTFTENTMHWVKQSHGKRLEWIGGINPNTGGTTYNQKFKGKATLTVDKSSSTAYMELRSLTSEDSAVYYCARRGTNWEHWYFDVWGAGTTVTVSS
VL: QIVLTQSPAIMSASPGEKVTMTCSASSSVSYMHWYQQKSGTSPKRWIYDTSKLASGVPARFSGSGSGTSYSLTISSMEAEDAATYYCQQWSSNPLTFGAGTKLELK
notes: as for B1
As to B11, the “FACS MFI” value in assay [1] stood at 2770; in assay [2], 38800; in assay [3] it was 2110.

B12: 27-F8-E10-E11 (antibody, V domains shown)
VH: EVQLQQSGPELVKPGASVKISCKTSGYTFTEYAMHWVKQSHGKILEWIGGINPNIGGTTYNQKFKDKATLTVDKSSSTASMELRSLTSEDSAVYYCARFLVPSTEGFTYWGQGTLVTVSA
VL: QIVLTQSPAIMSASPGEKVTMTCSASSSVSYMHWYQQKSGTSPKRWIYDTSRVASGVPARFSGSGSGTSYSLTISSMEAEDAATYYCQQWSSNPLTFGAGTKLELK
notes: as for B1
Turning to B12, the “FACS MFI” value in assay [1] stood at 1350; in assay [2], 16000; in assay [3], 80500.

B13: 7-E1-F8-F6 (antibody, V domains shown)
VH: QVQLQQSGPELVKPGASVQMSCKASGYTFTDYVISWVNQRTGQGLEWIGEIYPRSGNTYYNEKFKGKATLTADKSSNTAYMQLSSLTSEDSAVYFCARFDIAYSFDYWGQGTTLTVSS
VL: DVVMTQTPLSLPVSLGDQASISCRSTQSLVHSNGVTYLHWYLQKPGQSPKLLIYKVSNRFSGVPDRFSGSGSGTDFTLKISRVEAEDLGVYFCSQGTHVPWTFGGGTKLEIK
notes: as for B1
Take B13: the “FACS MFI” value in assay [1] came to 1310; in assay [2], 6990; in assay [3], 5590.
